Assay results: article PMC10604876, “Development of Anti-OSCAR Antibodies for the Treatment of Osteoarthritis” (Biomedicines, 2023)

How the values were obtained:
[1] = target: T1, mouse OSCAR extracellular domains fused to human IgG1 Fc (Mus musculus (Mouse)., UniProt Q8VBT3); experiment: BLI; Octet; IgG (5 ug/mL) captured on FAB2G sensor; 4.69-75 nM hOSCAR-Fc or mOSCAR-Fc (two-fold serial dilution) in PBST; 1:1 Langmuir model; conditions: both partners purified
T1 construct: osteoclast-associated receptor (OSCAR), mouse, extracellular domains 'corresponding' to amino acids 19-233 of human OSCAR; also called mOSCAR-Fc; mOSCAR; source: FreeStyle 293F, transfected (pVITRO1), secreted, purified (Protein G-Sepharose)

[2] = target: T2, human OSCAR extracellular domains fused to human IgG1 Fc (human) (UniProt Q8IYS5); experiment: ELISA; serial dilution ELISA of IgG-format antibodies against hOSCAR-Fc and mOSCAR-Fc; EC50
T2 sequence: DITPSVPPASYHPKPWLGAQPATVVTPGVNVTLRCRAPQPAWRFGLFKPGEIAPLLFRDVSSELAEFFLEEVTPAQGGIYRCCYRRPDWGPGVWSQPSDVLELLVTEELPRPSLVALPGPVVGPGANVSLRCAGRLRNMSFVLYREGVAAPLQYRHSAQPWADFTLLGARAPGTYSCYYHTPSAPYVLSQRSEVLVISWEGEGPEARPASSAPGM

[3] = target: T1, mouse OSCAR extracellular domains fused …; experiment: as above; conditions: both partners purified
[4] = target: T3, human OSCAR extracellular domains fused to human IgG1 Fc (Homo sapiens, UniProt Q8IYS5-2); experiment: as above; conditions: both partners purified
T3 construct: osteoclast-associated receptor (OSCAR), human, extracellular domains, amino acids 19-233; also called hOSCAR-Fc; hOSCAR; source: FreeStyle 293F, transfected (pVITRO1), secreted, purified (Protein G-Sepharose)

[5] = target: T3, human OSCAR extracellular domains fused …; experiment: BLI; Octet; IgG (5 ug/mL) captured on FAB2G sensor; 4.69-75 nM hOSCAR-Fc or mOSCAR-Fc (two-fold serial dilution) in PBST; 1:1 Langmuir model; conditions: both partners purified
[6] = target: T3, human OSCAR extracellular domains fused …; experiment: ELISA; serial dilution ELISA of IgG-format antibodies against hOSCAR-Fc and mOSCAR-Fc; EC50; conditions: both partners purified; remark: listed apart in the source
[7] = target: anti-OSCAR antibody D11, human IgG1; experiment: BLI; Octet; IgG (5 ug/mL) captured on FAB2G sensor; 4.69-75 nM hOSCAR-Fc or mOSCAR-Fc (two-fold serial dilution) in PBST; 1:1 Langmuir model

T1 sequence (Q8VBT3 19-231): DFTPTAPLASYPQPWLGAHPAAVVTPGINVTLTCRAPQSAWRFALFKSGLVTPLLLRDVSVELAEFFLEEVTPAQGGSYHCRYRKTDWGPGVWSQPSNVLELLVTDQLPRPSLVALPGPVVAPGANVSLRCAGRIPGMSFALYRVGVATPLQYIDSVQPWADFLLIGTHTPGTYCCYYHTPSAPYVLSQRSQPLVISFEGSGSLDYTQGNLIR

B1: anti-OSCAR antibody D11, human IgG1 (antibody, V domains shown)
VH: EVQLLESGGGLVQPGGSLRLSCAASGFTFSDYYWTWVRQAPGKGLEWVSGSPVFGAANYAQNFQGRFTISRDNSKNTLYLQMNSLRAEDTAVYYCAKAGFTGGHFDIWGQGTLVTVSS
VL: QSVLTQPPSASGTPGQRVTISCSGSSSNIGNNYVSWYQQLPGTAPKLLIYGNSNRPSGVPNRFSGSKSGTSASLAISGLRSEDEADYYCQSYDSSSWLFGGGTKLTVL
notes: VH before CDR-H3 (clone from a synthetic human scFv library); rest of VH after CDR-H3 and the human IgG1 constant region; light chain of D11; IgG1; Only the CDR-H3 is printed; also called D11 (parent); D11 IgG; source: ExpiCHO, transfected (pcIW3.3), secreted, purified (Protein G)
- Kd [1]: 2.87 nM
- koff [1]: 0.000254 s⁻¹
- kon [1]: 91300 M⁻¹ s⁻¹
- EC50 [2]: > 1000 nM
- EC50 [3]: 151 nM

B2: anti-OSCAR antibody D11-B9, human IgG1 (affinity-matured variant of D11) (antibody, V domains shown)
VH: EVQLLESGGGLVQPGGSLRLSCAASGFTFSDYYWTWVRQAPGKGLEWVSGSPVFGAANYAQNFQGRFTISRDNSKNTLYLQMNSLRAEDTAVYYCAKAGIPGHFDIWGQGTLVTVSS
VL: QSVLTQPPSASGTPGQRVTISCSGSSSNIGNNYVSWYQQLPGTAPKLLIYGNSNRPSGVPNRFSGSKSGTSASLAISGLRSEDEADYYCQSYDSSSWLFGGGTKLTVL
notes: VH before CDR-H3, as the heavy chain of m3; rest of VH after CDR-H3 and the human IgG1 constant region, as the heavy chain of m3; as the light chain of m3 (only CDR-H3 was randomized); IgG1; Only the CDR-H3 is printed; From NNK randomization of residues H98-99 (Kabat); CDR-H3 is one residue shorter than the parent's; also called D11-4-B9; source: ExpiCHO, transfected (pcIW3.3), secreted, purified …
- EC50 [4]: 0.93 nM
- Kd [1]: 0.22 nM
- koff [1]: 2.59e-05 s⁻¹
- kon [1]: 913000 M⁻¹ s⁻¹
- Kd [5]: 0.41 nM
- koff [5]: 4.15e-05 s⁻¹
- kon [5]: 101000 M⁻¹ s⁻¹
- EC50 [3]: 0.93 nM
- EC50 [6]: 36.8 nM

B3: human OSCAR extracellular domains fused to human IgG1 Fc (Fc fusion)
chain: DITPSVPPASYHPKPWLGAQPATVVTPGVNVTLRCRAPQPAWRFGLFKPGEIAPLLFRDVSSELAEFFLEEVTPAQGGIYRCCYRRPDWGPGVWSQPSDVLELLVTEELPRPSLVALPGPVVGPGANVSLRCAGRLRNMSFVLYREGVAAPLQYRHSAQPWADFTLLGARAPGTYSCYYHTPSAPYVLSQRSEVLVISWEGEGPEARPASSAPGM
- Kd [7]: 5.61 nM
- koff [7]: 0.000512 s⁻¹
- kon [7]: 91300 M⁻¹ s⁻¹
